Laboratory results from the supplement of paper PMC10567573.

B1: CHCHD6 (parent)
chain: MYKLSSEQFHEAASKMESTIKPRR
B2: ZNF263 (parent)
chain: EKPYKCPECGEIFAHSSNLLRHQR

Variants of: B1
Experiment: protein stability index of a GFP-peptide fusion (GPS, HEK-293T) (PSI 1-6); higher = more stable
Details: c terminus: a fixed tail appended
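Further: lentivirally expressed fusions sorted by FACS into six bins by GFP to DsRed ratio, PSI derived from sequencing read proportions per bin multiplied by bin number.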

Protein stability index: each site, then its substitutions
I20: T 4.25 | G 4.3 | V 4.08 | P 4.56 | Y 3.44 | S 4.21 | F 3.51 | D 4.22 | C 4.01 | A 4.38 | L 3.23 | R 3.97 | H 3.95 | W 3.07 | M 4.21 | K 4.05 | Q 3.82 | N 3.56 | E 4.74
R23: A 3.99 | E 4.14 | I 3.05 | L 2.91 | C 3.48 | H 3.96 | G 3.59 | Y 3.44 | T 3.31 | S 3.7 | K 4.11 | Q 3.12 | N 3.4 | P 3.78 | D 4.44 | M 3.65 | W 2.54 | V 3.16 | F 3
P22: D 4.26 | G 3.56 | A 3.46 | R 3.83 | K 3.8 | S 4.03 | E 3.93 | W 2.58 | Q 3.86 | M 3.86 | I 3.53 | L 3.92 | F 3 | N 3.46 | V 3.6 | C 4.05 | Y 3 | T 4.09 | H 3.91
R24: C 3.1 | N 4.18 | A 3.91 | V 3.06 | I 2.86 | M 3.86 | L 3.31 | F 3.06 | S 4.11 | G 3.39 | K 3.86 | P 3.7 | H 3.85 | E 3.74 | Y 3.15 | W 2.56 | Q 3.65 | T 4.12 | D 4.2
K21: D 3.69 | M 3.09 | E 4.33 | C 4.22 | P 4.13 | W 2.48 | L 3.04 | N 3.89 | T 3.31 | A 3.49 | S 3.68 | I 3.44 | H 3.86 | G 3.5 | Y 2.33 | R 3.9 | F 3 | V 3.61 | Q 3.22

Variants of: B2
Experiment: as above
Details: c terminus: a fixed tail appended

Protein stability index of substitutions, site by site:
P3: E 2.91 | F 2.69 | Y 3.04 | D 3.11 | C 2.1 | M 2.78 | S 2.09 | Q 1.78 | A 2.29 | L 2.57 | V 2.13 | K 1.52 | N 1.39 | I 1.82 | H 1.88 | R 1.89 | W 2.83 | T 2.85
P7: F 2.37 | N 2.21 | D 3.71 | Y 2.7 | R 1.62 | E 2.85 | W 2.29 | T 1.82 | M 2.49 | A 2.24 | Q 2.46 | K 1.49 | L 2.33 | V 2.68 | G 2.14 | S 2.8 | H 2.25 | I 2.28 | C 1.67
K2: R 2.64 | H 3.36 | D 3.24 | V 3 | M 2.59 | F 3.99 | C 3.25 | T 3.05 | E 3.09 | I 1.68 | W 2.32 | Q 2.89 | P 3.37 | Y 3.34
C6: H 2.71 | N 3.74 | S 2.88 | A 3.37 | D 3.49 | R 3.08 | Q 3.6 | P 3.76 | V 3.35 | W 2.47 | Y 3.05 | K 3.03 | F 3.46 | L 3.19 | T 3.45 | I 3.23 | E 3.76
E1: R 2.9 | H 2.75 | G 1.99 | C 1.85 | V 2.45 | L 2.53 | W 1.76 | T 2.65 | S 2.44 | K 1.83 | F 2.13 | N 2.31 | A 1.55 | Y 2.06 | M 2.37 | D 2.94 | P 2.2 | I 2.33 | Q 3.43
I12: D 2.22 | L 3.66 | M 2.04 | K 1.12 | F 1.82 | C 1.26 | G 1.17 | Q 3.23 | P 1.73 | A 2.29 | H 1.57 | Y 3.01 | E 2.94 | S 2.98 | N 1.83 | W 2.23 | V 1.7
C9: I 2.72 | V 2.92 | T 3.02 | L 2.93 | P 3.86 | Q 4.07 | M 3.83 | Y 3.45 | W 2.34 | R 3.73 | F 2.71 | N 3.48 | K 3.5 | S 3.72 | H 2.56 | A 3.62 | G 3.84 | E 4.06 | D 3.74
Y4: M 1.84 | L 2.47 | C 2.48 | G 2.85 | N 2.45 | T 2.91 | K 2.73 | S 2.52 | Q 3.06 | V 3.51 | E 2.99 | R 2.48 | P 2.12 | W 2.29 | I 2.76 | F 2.15
F13: Q 2.33 | R 3.24 | L 2.54 | M 2.1 | N 1.51 | C 3.01 | I 2.8 | G 2.35 | W 1.5 | Y 2.19 | H 4.03 | K 2.55 | V 2.12 | D 3.37 | P 2.62 | S 2.75
A14: H 3.17 | G 3.09 | D 3.67 | I 2.27 | L 2.75 | E 4.13 | N 2.7 | M 2.29 | F 2.57 | C 2.37 | K 2.82
G10: L 1.74 | S 2.12 | F 2.03 | T 1.92 | K 2.31 | H 2.59 | V 1.78 | I 1.79 | Q 1.84 | N 1.58 | W 2.14 | P 2.82 | D 2.98 | Y 1.69 | R 2.37 | M 1.91 | C 1.94 | A 1.88
E8: Q 1.71 | L 2.37 | Y 2.86 | A 2.51 | R 2.85 | I 2.04 | N 2.1 | S 2.28 | D 3.18 | K 3.12 | V 2.27 | P 2.74 | W 1.88 | F 2 | H 3.07 | M 1.95 | C 3.16 | T 2.74
K5: H 2.38 | G 2.31 | I 3.39 | D 2.24 | R 2.61 | Q 3.12 | N 2.5 | F 2.66 | Y 2.2 | W 2.46 | E 3.02 | S 2.64 | V 2.62 | L 2.39 | T 3.41 | P 2.55 | A 2.91 | C 1.52
E11: I 2.19 | W 2.42 | M 1.72 | H 1.89 | A 2.03 | N 1.73 | D 2.38 | S 1.13 | Q 2.68 | R 3.09 | Y 3.05 | L 1.76 | C 2.25 | T 2.1 | V 1.64 | K 3 | P 1.85 | F 1.79 | G 1.98
